{
  "source": "patent US8951758B2",
  "about": "“GH61 glycoside hydrolase protein variants and cofactors that enhance GH61 activity” (Codexis, Inc., priority 2011, dated 2015)",
  "molecules": {"B1": {"name": "GH61a: Wild-type M. thermophila C1 GH61a polypeptide (SEQ ID NO:2) (protein, listed as Myceliophthora thermophila)", "chain": "MSKASALLAGLTGAALVAAHGHVSHIVVNGVYYRNYDPTTDWYQPNPPTVIGWTAADQDNGFVEPNSFGTPDIICHKSATPGGGHATVAAGDKINIVWTPEWPESHIGPVIDYLAACNGDCETVDKSSLRWFKIDGAGYDKAAGRWAADALRANGNSWLVQIPSDLKAGNYVLRHEIIALHGAQSPNGAQAYPQCINLRVTGGGSNLPSGVAGTSLYKATDPGILFNPYVSSPDYTVPGPALIAGAASSIAQSTSVATATGTATVPGGGGANPTATTTAATSAAPSTTLRTTTTSAAQTTAPPSGDVQTKYGQCGGNGWTGPTVCAPGSSCSVLNEWYSQCL"}, "B2": {"name": "E104H/K167A (protein)", "chain": "B1 chain with E104H, K167A"}},
  "key": {"[1]": {"tested_on": "M. thermophila CF-416 whole broth cellulases", "conditions": "87g/kg glucan, 0.81% enzyme load, pH 5.0, 55° C., 50 μM CuSO4, 72 hours"}, "[2]": {"tested_on": "phosphoric acid swollen cellulose (PASC)", "assay": "GH61a Variant 1 plus beta-glucosidase with reducing agents or pretreatment filtrate on PASC (FIG. 5B)", "format": "biochemical", "conditions": "0.3% GH61a Variant 1, 0.08% BGL, 30 μM CuSO4, 48 h, pH 5, 55° C.", "description": "(§1) This Example provides experiments conducted to determine the effect of adding reducing agents (e.g., gallic acid and ascorbic acid) to saccharification reactions. In these experiments, enhancement of GH61 activity was tested using Variant 1 (SEQ ID NO:5) in the presence of reducing agents (specifically, ascorbic acid or gallic acid) and pretreatment filtrate, which contains various reducing agents from lignin degradation. Reactions were performed on cellulosic substrates, AVICEL® PH microcrystalline cellulose and phosphoric acid swollen cellulose (PASC), with purified M. thermophila-produced GH61 Variant 1 and beta-glucosidase at 0.3% and 0.08% respectively, with respect to substrate glucan mass, and 128 mM sodium acetate buffer (pH 5) supplemented with 30 μM CuSO4. Thus, reactions were performed with 0.3% GH61a and 0.08% BGL, where % enzyme loads are with respect to substrate glucan mass (36 g/L AVICEL® cellulose and 5 g/L PASC). Background (negative) controls were beta-glucosidase-only reactions tested in the absence of GH61a. Glucose production after 48 h incubation at pH 5, 55° C. was determined by glucose oxidase/peroxidase-based or HPLC-based glucose assay glucose assay, using methods known in the art. […] Filtrate dilutions are indicated in this Figure, where undiluted filtrate equals 72% of the total reaction volume. […]"}, "[3]": {"tested_on": "AVICEL® PH microcrystalline cellulose", "assay": "GH61a Variant 1 plus beta-glucosidase with reducing agents or pretreatment filtrate on AVICEL (FIG. 5A)", "format": "biochemical", "conditions": "0.3% GH61a Variant 1, 0.08% BGL, 30 μM CuSO4, 48 h, pH 5, 55° C.", "description": "as §1"}, "[4]": {"tested_on": "pre-treated wheat straw", "assay": "Biomass assay of a cellulase mixture (GH61a, CBH1a, CBH2b, BGL) with surfactants (FIG. 6)", "format": "biochemical", "conditions": "BGL at 0.3%, 0.15%, 0.08%, 55° C., 72 hours, pH 5", "description": "This example illustrates the enhancement of overall saccharification yield with the addition of surfactants such as TWEEN®-20 and PEG-4000. Experiments were designed to monitor the enhancement in cellulase activity with different concentrations of TWEEN®-20 or PEG-4000 in the biomass assay. The biomass assay was performed in a total volume of 90 μL, including 10 mg of pre-treated wheat straw, 64.8 μL (72% by volume) of filtrate (or H2O for no filtrate conditions), and 11.6 μl, of a mixture of sodium acetate buffer (pH 5.0, supplemented with CuSO4), M. thermophila-produced cellobiohydrolase 1a (CBH1a), cellobiohydrolase 2b (CBH2b), beta-glucosidase (BGL), and glycoside hydrolase type 61 (GH61a). The final concentration of sodium acetate was 128 mM (with 30 μM CuSO4) and the enzyme loads of CBH1a, CBH2b, BGL and GH61a were 0.15%, 0.15%, 0.08% and 0.3% with respect to the substrate glucan mass in the biomass substrate, respectively. Water was used in place of the enzymes as a negative control. […]\nData shown are total glucose produced by a mixture of GH61a, CBH1a, CBH2b, and BGL at 0.3%, 0.15%, 0.15%, and 0.08% with respect to the substrate glucan mass in the biomass substrate, respectively. In this Figure, TWEEN®-20 concentrations are expressed as % total reaction volume.\nIn this Figure, PEG-4000 concentrations are expressed as % total reaction volume."}, "[5]": {"tested_on": "acid-pretreated corn stover", "assay": "Shake flask saccharification with CF-416 whole broth enzymes with 0 or 50 μM CuSO4 at pH 5.0 or pH 6.0 (FIG. 4)", "format": "biochemical", "conditions": "50 μM vs 0 CuSO4; for increase in glucose yields: CF-416 whole broth enzymes 0.81%, 72 hours, 55° C.", "description": "This Example describes experiments designed to determine the effects of added copper in saccharification reactions. The saccharification reactions were run in 30g shake flasks (250 mL flasks) using 82g/kg glucan of acid-pretreated corn stover and whole broth enzymes produced by M. thermophila strain CF-416 (produced using standard methods known in the art) at a 0.81% total enzyme load with respect to glucan. […] A pH trim was also performed using 2M NaOH at time intervals of 1, 4, 7, 22, 24 29, 46, 52, 70, 75 and 96 hrs, to maintain the pH at the desired value of pH 5.0 or pH 6.0. Samples were removed at 72 hours and the total amount of glucose in the reaction mixture was determined using standard HPLC methods and equipment as known in the art."}, "[6]": {"tested_on": "pretreated wheat straw (PWS)", "assay": "Supplementation of CF-416 whole cellulase broth with single purified enzymes, saccharification of pretreated wheat straw", "format": "biochemical", "conditions": "0.4% single enzyme added to 0.5% CF-416 whole cellulase broth base", "description": "(§2) In this Example, M. thermophila-produced and purified GH61a, GH61p, GH61f, GH61n, CBH1a, CBH2b, AXE3, FAE, and Xyl3, were used to supplement the activity present in culture broths (i.e., “whole broth cellulase base”) of the M. thermophila strain CF-416 prepared using standard methods known in the art. The broth cellulase base was fixed to 0.5% protein and the single purified enzyme was added at 0.4% (wt added protein/wt glucan) to the saccharification reactions. The whole cellulase broth base and individual enzymes were characterized by standard BCA assays for total protein quantification.\n(§3) The saccharification reactions were carried out at 74 g/L glucan load of pretreated wheat straw (PWS) or pretreated corn stover (PCS) at pH 5.0, 55° C. at 950 rpm in the presence of 50 μM copper in high throughput (HTP) 96 deep well plates. Glucose analysis was carried out by the glucose oxidase assay as described above. In each case, the fold improvement was calculated using the formula Fold Improvement=[Total Glucose Production with addition of 0.4% single enzyme to the whole cellulase broth base]/[glucose production from the 0.5% whole cellulase broth base]. In this Table, the fold improvements were ranked from 0 to 3; fold improvements less than 1.2× are indicated by “0,” fold improvements of >1.2 to <1.5 are indicated by “1,” fold improvements of ≧1.5× to <1.7× improvements are indicated by “2,” and fold improvements ≧1.7 are indicated by “3.”"}, "[7]": {"tested_on": "pre-treated wheat straw", "assay": "Biomass assay of GH61a pre-incubated with or supplemented by copper(II) (FIG. 3)", "format": "biochemical", "conditions": "pre-incubated with copper(II) (CuSO4) 0 to 100 μM, 72 h, pH 5, 55° C.", "description": "Purified M. thermophila-produced GH61a or S. cerevisiae supernatant containing M. thermophila-GH61a was pre-incubated with different amounts of copper(II) (CuSO4) at concentrations of 0 to 100 μM at ambient temperature for 30 min. The biomass assay was then performed in a total volume of 300 μL, in the presence of 10 mg of pre-treated wheat straw, using 261 μL of copper-treated GH61 samples, 39 μL of sodium acetate buffer (pH 5), M. thermophila-produced CBH1a, CBH2b and β-glucosidase. The final concentration of sodium acetate was 120 mM and the enzyme loads of CBHs and β-glucosidase (CBH1a and CBH2b in 1:1 ratio) were 0.01% and 0.02% with respect to substrate glucan mass in the biomass substrate, respectively. Background (negative) controls were obtained by using either water or media supernatant from cultures of S. cerevisiae cells without the GH61a gene in the plasmid. Thus, the negative controls represent activities of CBH1a, CBH2b and beta-glucosidase in the absence of GH61a. The reaction was incubated at 55° C. for 72 hours with shaking.\nSome experiments were also performed without pre-incubating GH61 with copper(II), but instead, by directly adding different amounts of copper(II) (CuSO4) to the biomass assay reactions as described herein.\nBiomass assays were performed with (A) S. cerevisiae-produced M. thermophila GH61a Variant 5, and (B) M. thermophila-produced wild-type GH61a. Glucose production after 72 h incubation at pH 5, 55° C. was determined by the glucose assay. The data in this Figure indicate GH61a-only activity, in which the amount of glucose produced in control reaction containing CBH and β-glucosidase was subtracted from the total amount of glucose produced in the reactions with GH61a. In this Figure, N=4; and the error bars represent ±1 standard deviation. Copper concentrations shown are with respect to the total reaction volume."}, "[8]": {"tested_on": "pretreated corn stover (PCS)", "assay": "Supplementation of CF-416 whole cellulase broth with single purified enzymes, saccharification of pretreated corn stover", "format": "biochemical", "conditions": "0.4% single enzyme added to 0.5% CF-416 whole cellulase broth base; 74 g/L glucan, pH 5.0, 55° C., 50 μM copper", "description": "as §2, §3"}, "[9]": {"tested_on": "crystalline cellulose", "assay": "Saccharification of crystalline cellulose by cellulase enzymes in culture broth from M. thermophila cells with GH61a added (FIG. 1)", "format": "biochemical", "conditions": "GH61a added to cellulases of M. thermophila culture broth", "description": "FIG. 1 provides results of an experiment using recombinantly produced GH61a protein having the sequence shown in SEQ ID NO:2. The protein was tested for its ability to promote the activity of cellulases present in culture broth of M. thermophila.\nA protein from a strain of M. thermophila having the amino acid sequence provided in SEQ ID NO:2 was previously identified as having GH61 activity. It was designated “GH61a”."}},
  "note": "Positions count from the first letter of the chain named. Names and notes keep the numbering of the source.",
  "data": [
    {"molecule": "O=O", "note": "[oxygen]", "values": [
      {"measurement": "glucose yields, closed flask vs flask opened at 4 hrs and 24 hrs for fresh air", "setting": "[1]", "result": "not a limiting factor"}
    ]},
    {"molecule": "O=C(O)c1cc(O)c(O)c(O)c1", "note": "[gallic acid]", "values": [
      {"measurement": "GH61 activity in generating soluble sugars from PASC", "setting": "[2]", "result": "improved"},
      {"measurement": "GH61 activity in generating soluble sugars from AVICEL® cellulose", "setting": "[3]", "result": "improved"}
    ]},
    {"molecule": "TWEEN®-20", "values": [
      {"measurement": "total glucose production in the saccharification reaction", "setting": "[4]", "result": "enhanced"}
    ]},
    {"molecule": "O=S(=O)([O-])[O-].[Cu+2]", "note": "[copper(II), CuSO4]", "values": [
      {"measurement": "total amounts of C5 sugars produced", "setting": "[5]; FIG. 4, Panel B", "result": "may cause a decrease"},
      {"measurement": "increase in glucose yields", "setting": "[5]; saccharification pH 5.0", "result": "~3.5", "unit": "%"},
      {"measurement": "increase in glucose yields", "setting": "[5]; saccharification pH 6.0", "result": "not observed"}
    ]},
    {"molecule": "B1", "values": [
      {"measurement": "improvement over whole cellulase broth on PWS, in words", "setting": "[6]", "result": "greatest benefit"},
      {"measurement": "Fold Improvement Over Whole Cellulase Broth Tested on PWS", "setting": "[6]; 74 g/L glucan, pH 5.0, 55° C., 50 μM copper", "result": "3 (fold improvements ≧1.7)"},
      {"measurement": "GH61a-only activity (glucose production) when Cu^++ is included in the reaction", "setting": "[7]; listed as M. thermophila-produced GH61a", "result": "improved"},
      {"measurement": "GH61a-only activity (glucose production) when Cu^++ is included in the reaction", "setting": "[7]; listed as wild-type GH61a", "result": "increase"},
      {"measurement": "Fold Improvement Over Whole Cellulase Broth Tested on PCS", "setting": "[8]", "result": "2 (fold improvements of ≧1.5× to <1.7×)"},
      {"measurement": "glucose yield", "setting": "[9]", "result": "improvement in glucose yield"}
    ]},
    {"molecule": "B2", "values": [
      {"measurement": "GH61a-only activity (glucose production) when Cu^++ is included in the reaction", "setting": "[7]", "result": "increase"},
      {"measurement": "GH61a-only activity (glucose production) when Cu^++ is included in the reaction", "setting": "[7]; listed as S. cerevisiae supernatant containing M. thermophila-GH61a", "result": "improved"}
    ]}
  ]
}
